Data as given in patent publication US12723105 (dated 2026).

Columns and labels:
CD47-Fc (R&D systems) = CD47-Fc (R&D systems) (UniProt Q08722 19-139); assay: competitive ELISA vs SIRPα
[1] = target: T1, CD47 natively expressed on tumor cell surface (Jurkat, HL60 cells) (human, UniProt Q08722 19-323); assay: flow cytometry; HL-60 cells
[2] = target: T1, CD47 natively expressed on tumor cell …; assay: competitive flow cytometry vs SIRPα-Fc; Jurkat cells
[3] = target: human CD47 (R & D systems) (UniProt Q08722 19-139); assay: flow cytometry, CD47-overexpressing cells; HCAb
Human serum albumin = Human serum albumin (UniProt P02768 25-609); assay: Octet BLI
[4] = target: PD-L1 on PD-L1-expressing APC/CHO-K1 cells (UniProt Q9NZQ7 19-290); assay: flow cytometry, PD-L1 CHO cells; HCAb
PD-L1 on PD-L1-expressing APC/CHO-K1 cells, sequence (Q9NZQ7 19-290): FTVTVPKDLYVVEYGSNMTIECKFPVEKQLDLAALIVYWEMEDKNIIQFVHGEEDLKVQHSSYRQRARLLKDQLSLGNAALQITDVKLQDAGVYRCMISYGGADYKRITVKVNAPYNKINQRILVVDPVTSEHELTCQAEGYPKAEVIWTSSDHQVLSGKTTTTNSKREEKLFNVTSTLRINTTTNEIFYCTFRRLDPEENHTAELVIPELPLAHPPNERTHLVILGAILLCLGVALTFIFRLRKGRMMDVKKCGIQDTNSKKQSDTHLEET

IC50 (CD47-Fc (R&D systems)) [nM]	EC50 [1] [nM]	IC50 [2] [nM]	EC50 [4] [nM]	Binder	other results
0.267	0.182	0.935	–	multi-specific molecule 3321 (CD16F1-L1-hHS10-L1-hA09-10-3-L3-hA09-10-4-L1-H33-14-L3-H33-14) (other) EVQLVESGGGLVQPGGSLRLSCAVSGSLFSARVMGWYRQAPGKQRELVAAITSGVRTDYADSVKGRFTISRDNAKRAVYLQMNSLKPEDTAVYYCNVNLYNTGNYWGQGTQVTVSSGGGGSGGGSEVQLVESGGGLVQPGGSLRLSCAASGSTDSAYRMGWFRQAPGKEREFVSAINWSDGRTYYADSVKGRFTISRDNSKNTLYLQMNSLRAEDTAVYYCAADPDSRLYYTVPQNYDYWGQGTLVTVSSGGGGSGGGSEVQLVESGGGLVQPGGSLRLSCAASGGGRTFSNYALGWFRQAPGKEREFVAAISRSGGNINYADSVKGRFTISRDNFKNTVYLQMSSLRAEDTAVYYCAAHYLLLPSYISTSTNMYNYWGQGTQVTVSSAAAQVQLVESGGGLVQPGGSLRLSCAASGGGRTFSNYALGWFRQAPGKEREFVAAISRSGGNINYADSVKGRFTISRDNAKNTVYLQMSSLRAEDTAVYYCAAHYLLLPSYISTSTNMYNYWGQGTQVTVSSGGGGSGGGSQVQLVESGGGLVQPGGSLRLSCAASGRTSLILAMAWWRQAPGKEREFAGRIWWNNDMTRYSDSVKGRFTISRDNAKNTVYLQMSSLRAEDTAVYYCEADLIGGSRGWGQGTLVTVSSAAAQVQLVESGGGLVQPGGSLRLSCAASGRTSLILAMAWWRQAPGKEREFAGRIWWNNDMTRYSDSVKGRFTISRDNAKNTVYLQMSSLRAEDTAVYYCEADLIGGSRGWGQGTLVTVSS	–
0.453	26.2	1.28	–	multi-specific molecule 1511 (CD16F1-L1-hHS10-L1-hA09-10-2-L3-A09-10-L1-hPL16-L3-hPL16) (bispecific antibody) EVQLVESGGGLVQPGGSLRLSCAVSGSLFSARVMGWYRQAPGKQRELVAAITSGVRTDYADSVKGRFTISRDNAKRAVYLQMNSLKPEDTAVYYCNVNLYNTGNYWGQGTQVTVSSGGGGSGGGSEVQLVESGGGLVQPGGSLRLSCAASGSTDSAYRMGWFRQAPGKEREFVSAINWSDGRTYYADSVKGRFTISRDNSKNTLYLQMNSLRAEDTAVYYCAADPDSRLYYTVPQNYDYWGQGTLVTVSSGGGGSGGGSEVQLVESGGGLVQPGGSLRLSCAASGGGRTFSNYALGWFRQAPGKEREFVAAISRSGGNINYADSVKGRFTISRDNFKNTTYLQMSSLEPEDTAVYYCAAHYLLLPSYISTSTNMYNYWGQGTQVTVSSAAAQVQLVESGGGLVQAGGSLRLSCAASGGGRTFSNYALGWFRQAPGKEREFVAAISRSGGNINYADSVKGRFTISRDNFKNTTYLQMSSLEPEDTAVYYCAAHYLLLPSYISTSTNMYNYWGQGTQVTVSSGGGGSGGGSEVQLVESGGGLVQPGGSLRLSCAASGGTFLTYSMSWVRQAPGKEREFVSSINWSGYMTYYADSVKGRFTISRDNSKNTLYLQMNSLRAEDTAVYYCAAARTAIAAKRSSEFDYWGQGTQVTVSSAAAEVQLVESGGGLVQPGGSLRLSCAASGGTFLTYSMSWVRQAPGKEREFVSSINWSGYMTYYADSVKGRFTISRDNSKNTLYLQMNSLRAEDTAVYYCAAARTAIAAKRSSEFDYWGQGTQVTVSS	–
–	–	–	–	A09-10 (antibody, V domains shown) VH: QVQLVESGGGLVQAGGSLRLSCAASGGGRTFSNYALGWFRQAPGKEREFVAAISRSGGNINYADSAKGRFTISRDNFKNTTYLQMSSLKPEDTAVYYCAAHYLLLPSYISTSTNMYNYWGQGTQVTVSS	EC50 [3]: 0.36 nM
–	–	–	–	HS27 (VHH) VHH: EVQLVESGGGLVQPGGSLRLSCAASGRTFSPYTMGWFRQASGKERESVAATTWTGSRSYYGESVKGRFTISRDSTKNTMSLQMNSLKPEDTAVYYCAAADGAGLYTNRGQYDYWGQGTQVTVSS	Kd (Human serum albumin): 1.14 nM
–	–	–	1.78	PL16 (antibody, V domains shown) VH: QVQLVESGGGLVQAGGSLRLSCAFSGGTFLTYSLGWFRQGPGKEREFVASINWSGYMTSYVDSVKGRFTISRDNAKNTVYLQMNSLKPEDTALYYCAAARTAIAAKRSSEFDYWGQGAQVTVSS	–
–	–	–	2.09	PL14 (antibody, V domains shown) VH: EVQLVESGGGLVQAGGSLRLSCAASGSTSGIYDMGWYRQAPGKLREVVGIITSGGTTNYADFAKGRFTISRDNAKNMMYLQMNSLKPEDTAVYYCNIRTRLIIWGQGTQVTVSS	–
